{"source": "paper PMC4313098", "about": "“Mesencephalic Astrocyte-Derived Neurotrophic Factor Is Involved in Inflammation by Negatively Regulating the NF-κB Pathway” (Scientific Reports, 2015)", "binders": {"B1": {"name": "MANF-D3-GST (C-terminal SAP-like domain, amino acids 96-182) (domain or fragment, human, UniProt P55145 96-182, looked up)", "chain": "LAHHIPVEKICEKLKKKDSQICELKYDKQIDLSTVDLKKLRVKELKKILDDWGETCKGCAEKSDYIRKINELMPKYAPKAASARTDL"}}, "target": "T1, p65-N2-His (amino acids 1-190) (UniProt Q04206 1-190)", "T1 construct": "NF-κB p65, N-terminal 190 residues, subcloned into pET28a; also called p65-N2-6 × His; 6 × His-tagged p65-N2 fragment; source: E. coli, purified", "T1 sequence (Q04206 1-190)": "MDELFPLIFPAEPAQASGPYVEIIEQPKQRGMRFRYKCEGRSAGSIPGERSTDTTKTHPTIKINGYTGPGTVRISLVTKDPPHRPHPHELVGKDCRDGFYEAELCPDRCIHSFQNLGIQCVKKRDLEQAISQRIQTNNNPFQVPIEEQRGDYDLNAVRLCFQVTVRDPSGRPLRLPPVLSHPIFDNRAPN", "experiment": "pull-down; in vitro: purified GST-fused MANF (or truncate, or GST) pre-bound to glutathione-agarose; purified p65-N2-6xHis loaded in 50 mM Tris-HCl pH 7.5, 100 mM NaCl, 0.1% Triton X-100, 1 hr at 4°C; eluted with 500 mM NaCl; blot with anti-His", "conditions": "both partners purified"}
{"binder": "B1", "values": [{"measurement": "binding result", "value": "binds"}]}
